Measurements published in US20260275280A1, “DIRECTED DIFFERENTIATION PROTOCOLS TO DERIVE BONE FIDE SPINAL SENSORY INTERNEURONS” (THE REGENTS OF THE UNIVERSITY OF CALIFORNIA, priority 2022, published 2026).
“Also recorded” adds a separate entry of the source.

B1: Wnt4: mouse recombinant Wnt4 (protein, UniProt P22724 23-351, looked up)
Protein Wnt-4: SNWLYLAKLSSVGSISEEETCEKLKGLIQRQVQMCKRNLEVMDSVRRGAQLAIEECQYQFRNRRWNCSTLDSLPVFGKVVTQGTREAAFVYAISSAGVAFAVTRACSSGELEKCGCDRTVHGVSPQGFQWSGCSDNIAYGVAFSQSFVDVRERSKGASSSRALMNLHNNEAGRKAILTHMRVECKCHGVSGSCEVKTCWRAVPPFRQVGHALKEKFDGATEVEPRRVGSSRALVPRNAQFKPHTDEDLVYLEPSPDFCEQDIRSGVLGTRGRTCNKTSKAIDGCELLCCGRGFHTAQVELAERCGCRFHWCCFVKCRQCQRLVEMHTCR
B2: Wnt9b: mouse recombinant Wnt9b, non-canonical Wnt ligand (protein, UniProt O35468 24-359, looked up)
Protein Wnt-9b: AAYFGLTGREVLTPFPGLGTAAAPAQAGAHLKQCDLLKLSRRQKQLCRREPGLAETLRDAAHLGLLECQFQFRQERWNCSLEGRTGLLQRGFKETAFLYAVSAAALTHALARACSAGRMERCTCDDSPGLESRQAWQWGVCGDNLKYSTKFLSNFLGPKRGSKDLRARADAHNTHVGIKAVKSGLRTTCKCHGVSGSCAVRTCWKQLSPFRETGQVLKLRYDTAVKVSSATNEALGRLELWAPAKPGGPAKGLAPRPGDLVYMEDSPSFCRPSKYSPGTAGRVCSRDSSCSSLCCGRGYDTQSRMVVFSCHCQVQWCCYVECQQCAQQELVYTCKR
B3: Wnt2: human recombinant Wnt2, canonical Wnt (protein, UniProt P09544 26-360, looked up)
Protein Wnt-2: SWWYMRATGGSSRVMCDNVPGLVSSQRQLCHRHPDVMRAISQGVAEWTAECQHQFRQHRWNCNTLDRDHSLFGRVLLRSSRESAFVYAISSAGVVFAITRACSQGEVKSCSCDPKKMGSAKDSKGIFDWGGCSDNIDYGIKFARAFVDAKERKGKDARALMNLHNNRAGRKAVKRFLKQECKCHGVSGSCTLRTCWLAMADFRKTGDYLWRKYNGAIQVVMNQDGTGFTVANERFKKPTKNDLVYFENSPDYCIRDREAGSLGTAGRVCNLTSRGMDSCEVMCCGRGYDTSHVTRMTKCGCKFHWCCAVRCQDCLEALDVHTCKAPKNADWTTAT
B4: Wnt1: human recombinant Wnt1, canonical Wnt (protein, UniProt P04628 28-370, looked up)
Proto-oncogene Wnt-1: ANSSGRWWGIVNVASSTNLLTDSKSLQLVLEPSLQLLSRKQRRLIRQNPGILHSVSGGLQSAVRECKWQFRNRRWNCPTAPGPHLFGKIVNRGCRETAFIFAITSAGVTHSVARSCSEGSIESCTCDYRRRGPGGPDWHWGGCSDNIDFGRLFGREFVDSGEKGRDLRFLMNLHNNEAGRTTVFSEMRQECKCHGMSGSCTVRTCWMRLPTLRAVGDVLRDRFDGASRVLYGNRGSNRASRAELLRLEPEDPAHKPPSPHDLVYFEKSPNFCTYSGRLGTAGTAGRACNSSSPALDGCELLCCGRGHRTRTQRVTERCNCTFHWCCHVSCRNCTHTRVLHECL
B5: Wnt3a: human recombinant Wnt3a, canonical Wnt (protein, UniProt P56704 19-352, looked up)
Protein Wnt-3a: SYPIWWSLAVGPQYSSLGSQPILCASIPGLVPKQLRFCRNYVEIMPSVAEGIKIGIQECQHQFRGRRWNCTTVHDSLAIFGPVLDKATRESAFVHAIASAGVAFAVTRSCAEGTAAICGCSSRHQGSPGKGWKWGGCSEDIEFGGMVSREFADARENRPDARSAMNRHNNEAGRQAIASHMHLKCKCHGLSGSCEVKTCWWSQPDFRAIGDFLKDKYDSASEMVVEKHRESRGWVETLRPRYTYFKVPTERDLVYYEASPNFCEPNPETGSFGTRDRTCNVSSHGIDGCDLLCCGRGHNARAERRREKCRCVFHWCCYVSCQECTRVYDVHTCK

Tests used:
Format in all cases: cell-based, mouse
[1] = system: mESCs-derived NMPs / NPCs; assay: Bulk RNA-Seq differential expression and qRT-PCR after RA or RA+BMP4 treatment; details: AGN193109 added in 10 molar excess with the RA
Description: Bulk-RNA sequencing and data processing: Total cell lysate was obtained in buffer RLT (Qiagen) at different time points from three independent differentiations (biological replicates) conducted parallelly. RNA extraction was performed using RNeasy mini kit (Qiagen) and the quality was determined using Agilent Technologies 2100 Bioanalyzer and only samples with a RIN score >8.0 were sequenced. Stranded libraries were constructed using Universal plus mRNA sequencing kit (NuGEN) and sequenced onto 2 lanes of NovaseqS1 to generate 30 million reads/sample. Obtained reads were aligned to the latest mouse reference genome (mm10) using the STAR spliced read aligner. Pearson correlation and principal component analysis (PCA) was performed to determine the similarities among the samples and replicates. Differentially expressed genes were identified using DESeq and EdgeR package on R platform. The candidate genes were selected using cutoff false discovery rate (FDR <0.05) and log fold change (>2). Differentially expressed gene lists were further subjected to Enrichr, Metascape (Zhou et al., 2019) and DAVID functional annotation tools to identify enriched gene ontology (GO) categories.
(§1) Quantitative (a) RT-PCR analysis: RNA was isolated with RNeasy Mini Kit (Qiagen, cat no. 74104), and converted to cDNA using Superscript IV First Strand Synthesis kit (Thermo Fisher Scientific). qRT-PCR was performed using SYBR Green PCR Master Mix (Applied Biosystems) on Roche 480 Lightcycler (Roche). The relative fold expression was calculated using 2-AACt method of comparing the expression of the target gene with that of the housekeeping gene glyceraldehyde 3-phosphate dehydrogenase (Gapdh). All experiments were repeated at least 2-3 times (technical replicates) from at least two independent differentiations (biological replicates), and data is represented as mean±SEM.
We took advantage of the directed differentiation protocols to investigate the unresolved mechanisms by which RA and BMP direct dI fate specification. To further validate the use of a stem cell model, we first assessed the genetic basis of the fate decisions mediated by RA signaling. During the 24 hr pulse of RA at day 3, Pax3 levels gradually increase, while T expression concomitantly declines (FIG. 12A). […] To identify the transcriptional changes occurring during this first commitment step, we performed bulk RNA-Seq at day 3 (NMP state), day 3.25 (early transcriptional response to RA) and day 4 (dP state1) (FIG. 11B).
We hypothesized that the addition of BMP4 to NPCs in dP state1, directs them to a more dorsal dP state, i.e. dP state2 (FIG. 11A). To define the transcriptional changes occurring after BMP4 addition, we performed bulk RNA-Seq at day 4 (dP state1), day 4.25 (early transcriptional response to RA+BMP4) and at day 5 (dP state2) (FIG. 4A). […] 78 genes, out of 411, were common between both time points (FIGS. 4B, 13B). Focusing on these common genes, we identified enriched functional processes using GO analyses. The GO terms included the BMP signaling pathway (FIG. 4C, Table 3), confirming that the analysis identified BMP responsive genes.

Wnt/β-catenin signaling = assay: Inhibition of Wnt/β-catenin signaling during dI differentiation (IHC and RT-qPCR at day 9)
Description: (§2) The mouse ESC line, MM13, was routinely maintained in ES cell media (DMEM+20% FBS) with 100u/ml of mouse leukocyte inducing factor (LIF). […] To prepare cells for the differentiation, ESC colonies were dissociated with 0.25% trypsin and plated on gelatin coated plates at 1:10 dilution to reduce MEF transfer. Cells cultured on gelatin coated plates and allowed to proliferate for 1-2 days. To initiate differentiation, cells were plated on 0.1% gelatin coated 24-well CellBIND dishes (Corning) at 20,000 cells/ml density in 0.5 ml/well N2/B27 medium that contains 10 ng/ml basic fibroblast growth factor (bFGF). The N2/B27 medium contains 1:1 portions of Advanced Dulbecco's modified Eagle Media (DMEM) F12 (Hyclone) and Neurobasal media (Thermo Fisher Scientific) supplemented with 0.5×N2, 1×B27 supplement (with Vitamin A), 2 mM L-glutamine, 0.1 mM 2-mercaptoethanol (ME), and 1% BSA. On day 1, small colonies of cells can be observed attached to the bottom of the wells. On day 2, cells were supplemented with 10 ng/ml bFGF and 5 μM CHIR99021 for 24 hours to induce a neuromesodermal identity (Gouti et al., 2014). On day 3, media was changed as follows: for protocol 1, cells were exposed to 100 nM RA for 48 hrs. For protocol 2, 10 ng/ml human recombinant BMP4 (Thermo Fisher Scientific) was added concomitantly with 100 nM RA (RA+BMP4) for 48 hrs. For protocol 3, cells were exposed to 100 nM RA for 24 hrs, followed by a pulse of RA+BMP4 for another 24 hours. To induce terminal differentiation in all three conditions, the medium containing growth factors was replaced with basic N2/B27 medium at day 5, and cell allowed to differentiate to day 9. At the end of the differentiation, the cultures were fixed for immunohistochemical analysis or lysed to obtain RNA for RNA-Seq or quantitative reverse transcriptase PCR analysis.
Immunohistochemistry: For 2d differentiations, adherent cultures were first washed with 1×PBS and fixed with fresh cold 4% PFA for 10 minutes in the well. Following fixation, cultures were washed twice with 1×PBS to remove any remaining PFA. Cells were blocked with 1×PBS with 1% heat inactivated horse serum for 1 hour and primary antibodies are added in the blocking solution for an overnight incubation at 4C. Following washes, species appropriate secondary antibodies (Jackson Immuno Research Laboratories) were added in 1× PBT (PBS+0.1% […]) for 1 hr. The cultures were then washed with 1× PBT to remove traces of secondary antibodies and counterstained with DAPI to stain nuclei. Plates were then imaged on Zeiss LSM800 inverted confocal microscope at 10× magnification.
as §1
To assess the role of canonical Wnt signaling in dI fate specification, we added endo-IWR1 (IWR1e), a small molecule inhibitor which blocks p-catenin function (Chen et al., 2009) to dPs from day 4-6 (FIG. 5A). By day 9, the RA+BMP4 condition robustly induces dlis-dI3s (FIG. 5F-51, 5N-5P).

[2] = system: mESCs derived spinal NPCs; assay: Sufficiency of Wnt ligands or CHIR for dI fates (RT-qPCR at day 9); details: for identity of the BMP4-mediated dI fates (Lhx2, Foxd3, IsI2): RA+BMP4 protocol, Wnts 100 ng/ml or CHIR 5 μM for 24 hrs at day 5; for induction of BMP4 dependent dI fates (Lhx2, Foxd3, IsI1): added with RA at day 4 for 24 hrs, Wnts 100 ng/ml, CHIR 5 μM
Description: as §2, §1
We assessed these models, first by determining the effect of canonical Wnts (Wnt1, Wnt2, and Wnt3a), a non-canonical Wnt (Wnt9b) and a small molecule Wnt agonist (CHIR99021) on dI identity in the RA±BMP4 protocols. When Wnts were added in combination with RA, they were unable to induce the dorsal-most dIs by day 9 (FIG. 14A). […] Thus, Wnts are not sufficient to direct dI fate identity.

[3] = inhibitor added to RA+BMP4 (protocol 3) from day 4, 48 hours, day 9

Molecule | identity of the BMP4-mediated dI fates (Lhx2, Foxd3, IsI2) [2] | induction of BMP4 dependent dI fates (Lhx2, Foxd3, IsI1) [2] | further results
Cc1ccc(C2=CCC(C)(C)c3ccc(C#Cc4ccc(C(=O)O)cc4)cc32)cc1 [AGN193109] | – | – | upregulation of the RA-induced genes [1]: not upregulated
O=C(Nc1cccc2cccnc12)c1ccc(N2C(=O)[C@@H]3[C@H](C2=O)[C@@H]2C=C[C@H]3C2)cc1 [IWR1e] | – | – | dI1 and dI2 differentiation (Wnt/β-catenin signaling; [3]): loss of dI1s and dI2s; also recorded: dramatic reduction in the dI1 and dI2 populations; also recorded: most strongly suppresses the differentiation of the BMP4-dependent dI1/dI2s; dI3 differentiation (Wnt/β-catenin signaling; [3]): dI3 differentiation was less affected; also recorded: modest increase in dI3s; also recorded: more modest effect on dI3s; dI4, dI5, dI6 fates (Wnt/β-catenin signaling; [3]): no suppression of Pax2+dI4/dI6 and Lmx1b+dI5 fates; also recorded: concomitant increases in dI4, dI5 and dI6s; also recorded: increase in the expression of dI4-dI6 specific genes; dP markers Pax3, Pax7, Olig3 (Wnt/β-catenin signaling; inhibitor added to RA+BMP4 condition): did not erode Pax3+pan-dorsal identity or Pax7 expression, but nevertheless did suppress Olig3; also recorded: prevents both the suppression of Pax7+dPs and induction of Olig3+dPs
B1 | no significant effect | neither canonical Wnts (Wnt1, Wnt2, Wnt3a, Wnt4, all at 100 ng/ml) nor a non-canonical Wnt ligand (Wnt9b) induce the BMP4 dependent dI fates | –
B2 | no significant effect | neither canonical Wnts (Wnt1, Wnt2, Wnt3a, Wnt4, all at 100 ng/ml) nor a non-canonical Wnt ligand (Wnt9b) induce the BMP4 dependent dI fates | –
B3 | no significant effect | neither canonical Wnts (Wnt1, Wnt2, Wnt3a, Wnt4, all at 100 ng/ml) nor a non-canonical Wnt ligand (Wnt9b) induce the BMP4 dependent dI fates | –
B4 | no significant effect | neither canonical Wnts (Wnt1, Wnt2, Wnt3a, Wnt4, all at 100 ng/ml) nor a non-canonical Wnt ligand (Wnt9b) induce the BMP4 dependent dI fates | –
B5 | no significant effect | neither canonical Wnts (Wnt1, Wnt2, Wnt3a, Wnt4, all at 100 ng/ml) nor a non-canonical Wnt ligand (Wnt9b) induce the BMP4 dependent dI fates | –
